Results as given in the nanobody polyreactivity screen of Harvey et al. (2022).

Assay: yeast display, Sf9 membrane polyspecificity reagent, FACS + sequencing; frameworks hold sequencing errors
Outline: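 A nanobody's polyreactivity label depends on the gate it was sorted from. Yeast display cells were stained with 10% biotinylated, detergent-solubilized Sf9 membrane reagent for 1 hour at 4 °C, enriched on streptavidin microbeads and sorted by FACS. The low and high (top ~1%) gates were set on anti-HA fluorescence for expression and streptavidin fluorescence for reagent binding.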

Sequence: QVQLVESGGGLVQAGGSLRLSCAASGITFTYYAMGWYRQAPGKVRELVAGISSGTRTYYADSVKGRFTISRDNAKNTVYLQMNSLKPEDTAVYYCAARTGSRYSRGDYWGHGTQVTVSS
- polyreactivity (PSR sort gate): high polyreactivity

Sequence: QVQLVESGGGLVQAGGSLRLSCAASGGTFYYYAMGWYRQAPGKERELVAAITKNGGSTYYADSVKGRFTISRDNAKNTVYLQMNSLKPEDTAVYYCAASRFGRMDYWGQGTQVTVSS
- polyreactivity (PSR sort gate): high polyreactivity

Sequence: QVQLVESGGGLVQAGGSLRLSCAASGFIFFSNAMGWYRQAPGKEMELVAAISRIGVSTYYADSLKGRFTISRDNAKNTVYLQMKSLKPEYTAVYYCNKSNPDYDGLAIHAFDYWGQGTQVTVSS
- polyreactivity (PSR sort gate): low polyreactivity

Sequence: QVQLVESGGGLVQAGGSLRISCAASGSIFARYAMGWYRQAPGKERELVAAISKRGGSTYYADSVKGRFTISRDNAKNTVYLQMNSLKPEDTAVYYCAAVSYPPYTTKMDYWGQGTLVTVSS
- polyreactivity (PSR sort gate): high polyreactivity

Sequence: QVQLVESGGGLVQAGGSLRLSCAASGRIVANAMGWYRQAPGKERELVAAISWSGGRTFYADSVKGRFTISRDNAKNTVYLQMNSLKPEDSAVYYCNARGPVYARYDYCGQGTQVTVSS
- polyreactivity (PSR sort gate): low polyreactivity

Sequence: QVQLVESGGGLVQAGGSLRLSCAASGLIFTYYAMGWYRQAPGKERELVAAISGRGGSTYYADSVKGRFTISRDNAKNTVYLQMNSLKPEDTAVYYCAAVRWAGYVSDYGYWGQGTQVTVSS
- polyreactivity (PSR sort gate): high polyreactivity

Sequence: QVQLVESGGGLDQAGGSLRLSCAASGRIFDKYALGCYRHAPGKERELVAAISSSGGSTYYADSVKGRFTISRDNAKNTVYLQMNSLKTEDTAVYYCAKLVVVPFYYWGQGTQVTVSS
- polyreactivity (PSR sort gate): high polyreactivity

Sequence: QVQHVESGGGLVQAGGSLRLSCAASGSIFGTYAIGWYRQAPGKERELVATISYGDGSTYYADSVKGRFTISRDNAKNTVYLEMNSLKPEDTAVYYCNTGVYSSGGPLDYWGQGTQVTVSS
- polyreactivity (PSR sort gate): low polyreactivity

Sequence: QVQLVESGGGLVQARGSLRLSCAASGINFYHYPMGWYRQATGKEMELVAAINWGGSRTYYADSVKGRFTISRDNAKNTVYLQMNSLKPEDTAVYYCAAVYVPYYWLGRSRGLDYWGQGTQVTVSS
- polyreactivity (PSR sort gate): high polyreactivity

Sequence: QVQHVESGGGLVQAGGSLRLSCAASGSIFPLNAMGWSRQAPGQVSELVASISTGSSTYYADSVKGRFTISRDNAKNTVYLQMISLKPEDTAVYFCAVDRVLFSDFNRGYEYNYWGQGTQVTVSS
- polyreactivity (PSR sort gate): low polyreactivity

Sequence: QVKLLDSGGGLVQAGGSLRLTSAASGRIFYTNAMGWYRQEPGKERELVAVISWGGDTTYYADSVKGRFTISRDNAKNTVYLQMTSLKPEDTAVYYCNADWGATYEIYDSWGQGTQVTVST
- polyreactivity (PSR sort gate): low polyreactivity

Sequence: QVQLVESGGGLVQAGGSLRLSCAASGRSFYGYAMGWYRQAPGKERELVARISGGGRTYYADSVKGRFTISRDNAKNTVYLQMNSLNPEDTAVYYCAAVYRSTWYGFTGSVGTFDYWGQGTQVTVSS
- polyreactivity (PSR sort gate): high polyreactivity

Sequence: QVQLVESGGGLVQAGGSLRLSCAASGRTFYLYAMGWYRQAPGKERELVAAITSGGSTYYADSVKGRFTISRDNAKNTVYLQMNSLKPEDTAVYYCAAYAYLTAGTSRRRGYWGQGTQVTVSS
- polyreactivity (PSR sort gate): high polyreactivity

Sequence: QVQLVESGGGLVQAGGSLRLSCAASGRIFRVYAMGWYRPAPGKERELVAAITSGGTTYADSVKGRFTISRDNAKNTVYLQMYSLKPEDTAVYYCAARHAYPYRRGDFNYWGQGTQVTVSS
- polyreactivity (PSR sort gate): high polyreactivity

Sequence: QVQLVESGGGLVQAGGSLRLSCAASGRIFGVYAMGWYRQAPGKERELVAAISEGGGSTNYADSVKGRFTISRDNAKNTVYLQMNSLKPEDTAVYYCAADRSYYGYGYWGQGTQVTVSS
- polyreactivity (PSR sort gate): low polyreactivity

Sequence: QVQLVESGGGLVQAGGSLRLSCAASGNIITTYAMGWYRQAPGKERELVAAISRSGGRTNYADSVKGRFTISRDNAKNTVYLQMNSLKPEDTAVYYCAADGVPGRAVDYEYWGQGTQVTVSS
- polyreactivity (PSR sort gate): high polyreactivity

Sequence: QVQLVESGGGLVQAGGSLRLSCAASGRTFSAYAMGWYRQAPGKERELVARITSVDSTNYADSVKRRFTISRDNAKNSVYLQINSLKPEDTAVYYCNATFGYPFVDYDDYWGQGTQVTVSS
- polyreactivity (PSR sort gate): low polyreactivity

Sequence: QVQLVESGGGLVQAGGSLRLSCAASGRIFDHYAMGWYRQAPGKERELVAAITRSGGITYYADSVKGRFTISRDNAKNTVYLQMNSLKPEDTAVYSCAALSYRYTDKFDYWGQGTQVTVSS
- polyreactivity (PSR sort gate): low polyreactivity

Sequence: QVQLVESGGGLVQAGGSLRLSCAASGRIFRWYTMGWYRQAPGKEREFVAAITWSDTSTSYADSVKGRFTISRDNAKKTVYLQMNSLKPEDTAVYYCNAATRSSVTFGWYIEYDYWGQGTQVTVSS
- polyreactivity (PSR sort gate): low polyreactivity

Sequence: QVQLVESGGGLVQAGGSLRLSCAASGRIFYWNAMGWYRQAPGKERELVAGITGGGNTNYADSVKGRFTISRDNAKNTVYLQMNSLKPEDTAVYYCATRTNRRRSYDYWGQGTQVTVSS
- polyreactivity (PSR sort gate): high polyreactivity

Sequence: QVQLVESGGGLVQAGGSLRLSCAASGRTFGGNVMAWYRHAPGKERELVAAITWSGGSTYYADSVKGRFTISRDNAKNTVYVQMNSLKPEDTAVYYCNALWVWYRGSSVRWVGGYDYWGQGTQVTVSS
- polyreactivity (PSR sort gate): high polyreactivity

Sequence: QVQLVESGGGLVQAGGSLRLSCAASGITFNKYAMGWYRQAPGKERELVAAISSRGGSTYYADSVKGRFTISRDNAKNTVYLQMNSLKPEDTAVYYCNADVYRASNFDYWGQGTQVTVSS
- polyreactivity (PSR sort gate): high polyreactivity

Sequence: QVQLVESGGGLVQAGGSLRLSCAASGFTFYWYAMGWYRQAPGKEREFVAAIDQSGGSTYYADSVKGRFTISRDNAKNTVYLQMNSLKPEDTAVYYCAAAYLRYVSTQYHYDYWGQGTQVTVSS
- polyreactivity (PSR sort gate): low polyreactivity

Sequence: QVQLVESGGGLVQAGGSLRLSCAASGLTFRYYTMGWYRQAPGKERELVASITSGGITYYADSVKGRFTISRDNAKNTVYLQMNSLKPEDTAVYYCAKGSYRTTYGALGVKFGYWGQGTKVTVSS
- polyreactivity (PSR sort gate): high polyreactivity

Sequence: QVQLVESGGGLVQAGGSLRLSCAASGITFRTNAMGSSRQAPGKERELVAAITTNGGNTYYADSVKGRFTISRDNAKNTVYLQMNSLKPEDTAVYYCNTATYVDSFPDPGDHWGQGTQVTVSS
- polyreactivity (PSR sort gate): low polyreactivity

Sequence: QVQLVESGGGLVQAGGSLRLSCAASGFIFVRYAMGWYRQAPGKERELVAAISSGGSTKYADSVKGRFTISRDNAKNTVYLQMNSLKPEDTAVYYCAADATPGRGVDYWGQGTQVTVSS
- polyreactivity (PSR sort gate): high polyreactivity

Sequence: QVQLVESGGGLVQAGGSLRLSCAASASNIIGYAMGWYRQAPGKERELVAAITSGSITNYADSVKGRFTISRDTAKNTVYLQMNSLKPEDTAVYYCNADVNFIDDDYWGQGTQVTVSS
- polyreactivity (PSR sort gate): low polyreactivity

Sequence: QVQLVESGGGLFQAGGSLRLSCAASGSIFGKYTMGWYRQAPGKERELVAGITYRAGSTYYADSVKGRFTISRDNAKNTVYLQMNSLKPEDTAVYYCAARFYFRWYYYGSYANYWGQGTQVTVSS
- polyreactivity (PSR sort gate): high polyreactivity

Sequence: QVQLVESGGGLVQAGGSLRLSCAASGSTFIPYAMGWYRQAPGKERELVARITWSDTSTYYADSVKGRFTISRDNAKNTVYLHMNSVKPEDTAVYYCAAKEFSLARGARPRYYYWGQGTQVTVSS
- polyreactivity (PSR sort gate): high polyreactivity

Sequence: QVQLQESGGGLEQAGVSLRLSCAASGYISDIGTMGWYRQAPGKEREFVATIVVGSTTNYADSVKGRFTISRDNAKNTVYLQPESGRYRGVLLRGWLLAVGIFTYWGQGTQETVSS
- polyreactivity (PSR sort gate): low polyreactivity

Sequence: QVQLVESGGGLVQAGGSLRLSCAASGSTFHPNGMGWYRQAPGKERELVAAIRRSGGSTYYADSVKGRFTISRDNAKNTVYLQMNSLKPEDTAVYYCAAKHYYYSPYVRYDPPPGYYWGQGTQVTVSS
- polyreactivity (PSR sort gate): high polyreactivity

Sequence: QVQLVESGGGLVQAGGSLRLSCAASGRIFYYYGMGWYRQAPGKERELVAAISNGGRTYYADSVKGRFTISRDNAKNTVYLQMNSLKPEDTAVDYCAALTRGRGGYDYWGQGTQVTVSS
- polyreactivity (PSR sort gate): high polyreactivity

Sequence: QVQLVESGGGLVQAGGSLRLSCAASGSIFYTNAMGWYRQAPGKERELVASIRTGGSTNYADSVKGRFTISRDNAKNTVYLQMNSLKPEDTAVYYCNADDPDYHGSIDDLDYDYWGQGTQVTVSS
- polyreactivity (PSR sort gate): low polyreactivity

Sequence: QVQLVESGGGLVQAGGSLRLSCAASGSTFGINDMGWSRQAPGKEREFVAAISSTTDSTRYADSVKGRFTISRDNAKNTVYLQMNSLKPEDTAVYYCAAAPQFTFGVGYWGQGTQVTVSS
- polyreactivity (PSR sort gate): low polyreactivity

Sequence: QVQLVESGGGLVQAGGSLRLSCAASGSIFRGNALGWYRQAPGKERELVAAITGSGGNTYYADSVKGRFTISRDNAKNTVYLQMNSLKPEDTAVYYCNAQRYRVVVYNSHGWQTRNYWGQGTQVTVSS
- polyreactivity (PSR sort gate): low polyreactivity

Sequence: QVQLVESGGGLVQAGGSLRLSCAASGRTFHAYVMGWYRQAPGKERELVADISSGGDTYADSVKGRFTISRDNAKNTVYLQMNSLKPEDTAVYYCAVDLIQDESRYWGQGTQVTVSS
- polyreactivity (PSR sort gate): low polyreactivity

Sequence: QVQLVESGGGLVQAGGSLRLSCAASGLTFRTYAMGWYRQAPGKERELVAAITWSGDSTYADSVKGRFTISRDNAKNTVYLQMNSLKPEDTAVYYCATKGYFSYHPYDYWGQGTQVTVSS
- polyreactivity (PSR sort gate): low polyreactivity

Sequence: QVQLVESGGGLVQAGGSLRLSCAASGSIFPYNVMGWYRQAPGKERELVAAISTRGGRTYYADSVKGRFTISRDNAKNTVYLQMNSLNPEDTAVYYCATAGGPYSASGYYWGQGTKVTVSS
- polyreactivity (PSR sort gate): high polyreactivity

Sequence: QVQLVESGGGLVQAGGSLRLSCAASGSIFAFYAMGWYRQAPGKERELVAVISVSDGSTYYADSVKGRFTISRDNAKNTVYLQMKSLKAEDTAVYYCAATPRGSYGYYYWGQGTQVTVSS
- polyreactivity (PSR sort gate): low polyreactivity

Sequence: QVQLVESGGGLVQAGGSLRLSCAASGSIFDTNAMGWYIQAPGKEREFVGTITNSGGRTYYADSVKGRFTISRDNAKNTVYLQMNSLKPEDTAVYYCNADVHRFSGNGYRYYYWGQGTQVTVSS
- polyreactivity (PSR sort gate): low polyreactivity

Sequence: QVQLVESGGGLVQAGGSLRLSCAASGFTFSTYAMGWYRQEPGKEREFVATISWRGTNTYYADSVKGRFTISRDNAKNTVYLQMNSLKPEDTAVYDCAARRRSGYGANDYWGQGTQVTVSS
- polyreactivity (PSR sort gate): high polyreactivity

Sequence: QVQLVESGGGLVQAGGSLRLSCAASGSIFDPYAMGWYRQAPRKERELVAAIRWSGTSTYYADSVMGRFTISRDNAKNTVYLQMNSLKPEDTAVYYCAARGSKGFSSPFGYWGQGTQLTVSS
- polyreactivity (PSR sort gate): high polyreactivity

Sequence: QVQLVESGGGLVQAGGSLRLSCAASGSIFEGNGMGWYRPAPGKERELVAAITFRSGSTYYADSVKGRFTISRDNAKNTVYLQMNSLKPEDTAVYYCAADEYYQVSAYDYWGQGTQVTVSS
- polyreactivity (PSR sort gate): low polyreactivity
